Assay results taken from the supplement of paper PMC12636428.

Test system: Saccharomyces cerevisiae
Test: transcriptional activation domain activity (GFP:mCherry ratio, weighted mean of sorted bins, harmonized to initial dataset scale) (arbitrary fluorescence ratio units); higher = stronger transcriptional activation
Details: beta-estradiol 1 µM; induction time 4 h
In short: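 Activation activity, the read-weighted mean of bin median fluorescence averaged across barcodes, was linearly mapped onto the scale of the initial dataset. It was measured for barcoded protein tiles fused to an estradiol-inducible synthetic transcription factor at URA3 in GFP-reporter yeast diploids. Cultures diluted 1:5 into SC with 1 uM beta-estradiol were held 4 hours at 30 °C, sorted into 8 bins by GFP:mCherry ratio, and barcode-sequenced, and tiles under 50 reads were discarded.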

| Sequence | transcriptional activation domain activity |
| --- | --- |
| QAAQESDEESEAPNPTAKTLSKRAAEAWKQLSASDKDKYKVLADKEREEHARL | 28800 |
| QAARTSDYSIAQFRFLLKLLLVHGRWNYVRICKYTLGTFWKEMLFYSVQALYQ | 15400 |
| QAATGVGILLLLHDFKRVSIVILAQDGCDDEGWPNQLVAFAALLRSRLLKGGE | 22100 |
| QADYMCQYKGGLIGKHFKTLSQVMAFAVHGLVPPDVLEAWLILGRLTVLLWHT | 49400 |
| QAEDSNDNDNNNKAAAEEEEEEGGGERSGPMVNGNGGGGAEGMVNGASAVGRD | 14800 |
| QAFTIVDPTPPIRFYDLHRLHLTLVHSPMRFFHVAPIIPFLLSYLIELYSLFY | 43100 |
| QAGSTGSSSRKRKKAVTDGEETPSTSEPRRLRRSHEACARCRSKKIKASACDS | 28300 |
| QAHPPVQVRKTSHKAAEQKRRDSLKTTFDDLRGTASAAAPPVGRHGRACAPGA | 35300 |
| QANGVEKAVENLSISSPHPDTHAQSAPEQNGPKKKPNRAKARLARRAAEYEAL | 14100 |
| QAPQAGRGQGAQGGRTRHQAGGARAEEDEPQGARQEGRGGQGGGEEEARGGEG | 37600 |
| QARQAQEPAMSQKDLATKVNEKQSVINDYESGRAVPNQQLLAKLERALGVKLR | 51300 |
| QARQSKEPAMSQKDLATKVNEKQSVINDYESGRAVPNQQVLSKLERALGVKLR | 36800 |
| QASPEAAKAEGEKASPEAAKAEGEAQPAEGQKEGEAAKAEGEAAAAEAGAGAG | 27600 |
| QCAYVLEHCMDATPGIFNYIQLYYCSPVRPLVFVLLCAWLLFLFGFVGIAASD | 23300 |
| QCGLICTLYFANRYGIILGSLPFALQPFIHWTSKGWCLIFRIYLLIYASFVLL | 43200 |
| QCIFVLLVLLMRRHLAKMHLCLKQEIDWRELDDDRDTVTWVVAAVWQRFIDLK | 61000 |
| QCYNYLRVILMVSVGQGLARSVHWCMFLYQQGLDYVLWYYRNTLLLVSFLIGW | 62200 |
| QDAGGSGDKKGGVYVHCAMGKSRSVTCVVAYLLYRYPHRYGGTAGSSSTAQRR | 45800 |
| QDALVELFGHMENFFRRLEKHIEVRPTTAMTDIIVKIMVEVLSILGIVTKEIE | 41200 |
| QDEKHAEREGDTSSADGKEKSQDGDGGEKQKEGEGKPEKRNGVEAGAKNPAVK | 10600 |
| QDNLNIEDKEEMSPNIEIKNEQNMTDSNDILGVFDQLDAQLFGKYLPLNYPSE | 81700 |
| QEDDPMPYLSWTPTVGRNSAFVDLTEEQREELGGIEYRSLKLLLIILVCYYVG | 48300 |
| QEKEGGAKEAQPDADADAEAEGKAARQKARKAVVSAASDDEGDDEEEEEEEEG | 10000 |
| QELCRTANITYHRTSYPVVHRHLFSTPSLQRLMTWLKELPYQVAFQVELLVRG | 49100 |
| QENAQTEKEERDEKERAREKGNEKEKGNESEKGDEKKKGNEKKKGTERGKGKG | 28100 |
| QENHNSSENGNENENEQDSLALDDLDRAFELVEGMDMDWMMPSHAHHSPATTA | 123000 |
| QENTLPATQANSSLLETYPIVQSNPVTTTIKESPNSIMAGWDNWESDMVWRDV | 90100 |
| QEQEQEGMELGIKEGPADPRCKTCGRTEGTRKCTGCGRVRYCGRECQKKDWKV | 29700 |

| Sequence | transcriptional activation domain activity |
| --- | --- |
| QESEAVTEKCKNRLDITSEELERVLLQKEGESLKDNAVQQRQGAGGKRAIGKA | 23500 |
| QESIPHQVGFSTPQLTAQQLIENAIESGVVDLETLDLPPFLSLDGLPPASSSA | 116000 |
| QESVYIEVISYIGLIFDWFWYYILMNLSVFIWLACMYYTIFLYGFLEAYFPEK | 33000 |
| QFALLLGSFLCVAISCFGHLALLFLWLIAPFYFLVFLFWQSFNLFLFVSVCCG | 44700 |
| QFARFTLEETNLMWKRAANPELTPLTSFPPLWVATRLRLFYVINSILSYFMTT | 60800 |
| QFFFFVLSFFFFVGFVGADDLCSFILFLLFFSTPFFFIGKASLLSSFFAFHST | 51700 |
| QFRYLKRLLLVHGHWSYARNGNMINNFFYKNIICIGVLWWFMIYCGWSSAYVF | 71200 |
| QFSWNVCFMVFLFLFLFLFLCFVCFTLLCLSKMLHNVLHYNFILCFLSSFCFV | 52400 |
| QGAAKAVFEPHFSQKDDEGNIIKKKFAVACRVRNCTKLDRMTVISALAAAVGQ | 46500 |
| QGASAGVSPIFKKEKYTLKWKRVKEFNLIFVAVYQSLLHLGWIDRLLENISTI | 67900 |
| QGDTDADGNGHGTHCSGTIAGKKYGVAKKAHVYAVKVLRSNGSGTMADVIGGV | 59600 |
| QGDYMCQYRGGLIGKHFKTLLQIMAFAVQDLVPPDVLEAWLILGRLTVLLWHM | 82000 |
| QGEEGEKKAGGRGRGGGRKKAEKHMAEGSGDEISPKKSGKGGEAGGSKAAAGA | 33700 |
| QGFMNVTFTNGRKYEALSKQLIFIVHAIFMAANDHVGYILLRALRVYMELDVY | 69900 |
| QGIEPLLPPKWGMLVGEARDLLVLFGALGEQERWNFWTTGCSYMTAMVLLTAN | 53000 |
| QGIGLMYLVLVMLCLASLLITNLHFLTVYRSTLIHSYMSQLIVFSFLLPLSLV | 44700 |
| QGRTLDVTRAVSRDRAEKLRETGERTRERKDKRNLYLMREGVIFVSTPSASTL | 39700 |
| QGTNHAYHEHILNTDMDLKILEDLCNISSLYEVPFGKHINHHDHNNAGNGCDG | 83400 |
| QHKKRRAEQAGRGEKAEADGSQARRKAEDRREEQQRAKQSAGQKEQEKVKAEQ | 56000 |
| QHLRSDPQMRLWLVMFLFLTFMVHTILSATLSIIFVSITYSLFWLPQIVRSAR | 30800 |
| QHMAQSAQSVMGLEDHNAYGDPDSASRKRSKVSRACDECRRKKVRPRRPANGV | 25800 |
| QHNASQPGDLHSVLHRNQREGQHSVNQLVDRHSESQRGGQHNVNQQRDLQHGN | 33400 |
| QIDQNGDPLAKYVRNKVRTTKYTIISILPKDLFEQFRNVIFFLVLVIFQNFPF | 56900 |
| QILGCLYCVRWVHMCVYNVSGVQSLIPWLAMLPALARLKFSIWSHRGPPPDGD | 52100 |
| QILICVIYVLVAYSRDDTSWSRVCYFMPCAPQSIKERDQAFSLFAGIFSFVVV | 39200 |
| QITNRILPSPAAVRYSGLIPLLVLVLVLPLFFLFFLFFFFFLFLFLFFLVLLY | 58800 |
| QKKKEAAARNKAKAAPAKEEAAVTPAKVVEKPAAAAAATPAKGGKKMTAALRL | 37600 |
